From publication PMC2665295
Read-outs that look alike come from different tables or passages of the source. Values belong to the substance of their own block, whether it stands above or below them.

Columns and labels:
[1] = target: rat αCaMKII (Ca2+/calmodulin-dependent protein kinase II, α subunit) (rat) (UniProt P11275); experiment: ITC
[2] = target: rat αCaMKII (Ca2+/calmodulin-dependent protein kinase II, α subunit) (rat) (UniProt P11275); experiment: ITC; remark: listed apart in the source
[3] = target: rat αCaMKII (Ca2+/calmodulin-dependent protein kinase II, α subunit) (rat) (UniProt P11275)
[4] = target: rat αCaMKII (Ca2+/calmodulin-dependent protein kinase II, α subunit) (rat) (UniProt P11275); experiment: ITC; remark: listed apart in the source
[5] = target: rat αCaMKII (Ca2+/calmodulin-dependent protein kinase II, α subunit) (rat) (UniProt P11275); experiment: ITC; remark: listed apart in the source

rat αCaMKII (Ca2+/calmodulin-dependent protein kinase II, α subunit) (rat), sequence (P11275 whole entry): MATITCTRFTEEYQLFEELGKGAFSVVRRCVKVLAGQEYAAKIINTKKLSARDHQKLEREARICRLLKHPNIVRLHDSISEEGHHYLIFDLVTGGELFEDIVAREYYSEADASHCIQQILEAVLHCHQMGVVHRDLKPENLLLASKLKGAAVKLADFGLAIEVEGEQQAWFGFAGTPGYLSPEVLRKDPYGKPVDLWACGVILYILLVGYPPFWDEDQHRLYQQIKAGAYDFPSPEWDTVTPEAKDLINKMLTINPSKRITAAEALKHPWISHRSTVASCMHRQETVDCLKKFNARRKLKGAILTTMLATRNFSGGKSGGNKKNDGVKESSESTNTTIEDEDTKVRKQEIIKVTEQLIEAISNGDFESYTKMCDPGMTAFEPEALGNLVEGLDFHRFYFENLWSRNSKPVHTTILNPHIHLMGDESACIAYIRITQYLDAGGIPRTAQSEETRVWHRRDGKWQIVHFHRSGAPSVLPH

Kd [1]: 370 nM
dH [1]: -6.5 kcal/mol
stoichiometry N [1]: 0.84
Kd [2]: 360 nM
dH [2]: -7.3 kcal/mol
stoichiometry N [2]: 0.979
activation of CaMKII (phosphorylation of syntide), K0.5 [3]: 1.4 µM
Substance: CaMCC, a chimeric molecule composed of two C-lobes of CaM

Kd1 (binding mode 1) [1]: 0.064 µM
Kd2 (binding mode 2) [1]: 0.34 µM
N1 (binding mode 1) [1]: 0.26
N2 (binding mode 2) [1]: 0.62
dH1 (binding mode 1) [1]: 0.7 kcal/mol
dH2 (binding mode 2) [1]: -18.1 kcal/mol
Kd1 (binding mode 1) [2]: 18 nM
Kd2 (binding mode 2) [2]: 360 nM
N1 (binding mode 1) [2]: 0.36
N2 (binding mode 2) [2]: 0.61
dH1 (binding mode 1) [2]: -6.3 kcal/mol
dH2 (binding mode 2) [2]: -14.7 kcal/mol
Substance: CaMNN, a chimeric molecule composed of two N-lobes of CaM

Kd [1]: 1320 nM
dH [1]: -12.8 kcal/mol
stoichiometry N [1]: 0.83
dH [4]: -11.1 kcal/mol
stoichiometry N [4]: 1.08
Kd [5]: 1900 nM
dH [5]: 1.7 kcal/mol
stoichiometry N [5]: 0.823
Substance: wild-type calmodulin (from UniProt P0DP23 1-149) (natural protein; other documents disagree on this pair)
